# In PMC4242836 (The Journal of Cell Biology, 2014):
# T1: Snu13p (S. cerevisiae, UniProt P39990 1-126)
# T1 sequence: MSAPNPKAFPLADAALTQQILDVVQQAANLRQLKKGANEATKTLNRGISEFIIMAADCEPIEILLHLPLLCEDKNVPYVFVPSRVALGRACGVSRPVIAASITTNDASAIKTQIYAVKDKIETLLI
# B1: Rsa1_(238–290) (domain or fragment)
# chain: TDEDVKKWREERKKMWLLKISNNKQKHMQEMGIKEDELKSQPSIFKESRKEKQ
# Target: T1, Snu13p
# Assay: crystal structure
binder,measurement,value
B1,binding result,binds
